The target of experiment [1] is TNFα (fused trimer) - AVI Tag, biotinylated, in the presence of compound (3). The experiment can be described thus: TR-FRET, 7.5 nM proteins, compound (3) up to 25 µM; partial loss of receptor binding.
Experiment [2] has as its target TNFα (fused trimer) - AVI Tag, biotinylated, in the presence of compound (4). The experiment can be described thus: TR-FRET, 7.5 nM proteins, compound (4) up to 25 µM; partial loss of receptor binding.
Experiment [3] has as its target T1, fused human TNFα trimer in complex with compound (2) (human, UniProt P01375 77-233; P01375 86-233; P01375 86-233, limits assumed).
T1 construct: also called trimer-compound complex; compound-trimer complex
The experiment is described as follows: analytical SEC (HPLC, TSK G3000SW), Abs 280 nm against retention time; 3.2 fold excess of TNFR1 over fused TNFα trimer preincubated with 90, 240, 465 or 690 µM compound (2) [D00007 Fig. 5(Cont.]. The method, then:
The final concentration of DMSO was 0.25%. The mixture was incubated for 1 hour at 22° C.

In experiment [4] the target is T2, fused human TNFα trimer in complex with compound (5) (human, UniProt P01375 77-233; P01375 86-233; P01375 86-233, limits assumed).
T2 construct: also called trimer-compound complex
T2 sequence (P01375 other isoform, or with tags, fused parts or gaps limits assumed): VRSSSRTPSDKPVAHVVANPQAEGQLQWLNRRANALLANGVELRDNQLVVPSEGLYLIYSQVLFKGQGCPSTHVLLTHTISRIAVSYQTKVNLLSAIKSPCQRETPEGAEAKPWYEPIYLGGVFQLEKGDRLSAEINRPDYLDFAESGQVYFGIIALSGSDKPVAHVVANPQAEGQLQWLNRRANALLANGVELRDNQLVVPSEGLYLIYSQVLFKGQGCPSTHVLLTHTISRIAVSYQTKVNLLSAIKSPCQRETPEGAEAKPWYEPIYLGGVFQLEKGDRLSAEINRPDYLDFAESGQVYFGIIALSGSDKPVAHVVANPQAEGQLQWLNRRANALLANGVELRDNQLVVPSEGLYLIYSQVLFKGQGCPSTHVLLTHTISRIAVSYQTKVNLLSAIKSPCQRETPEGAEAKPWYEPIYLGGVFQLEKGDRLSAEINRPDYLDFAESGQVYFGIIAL
The experiment can be described thus: analytical SEC (Superdex 200HR 10/300), Abs 280 nm against retention (CV); 3.5 fold excess of TNFR1 over trimer preincubated with 200 µM compound (5). How it is done: The final concentration of DMSO was 1.0%. The mixture was incubated for 1 hour at 22° C.

The target in experiment [5] is T3, soluble form of mouse TNFα (VC 6535) in complex with compound (1) (mouse, UniProt P06804 89-235).
T3 construct: also called murine TNFα; trimer-compound complex
T3 sequence: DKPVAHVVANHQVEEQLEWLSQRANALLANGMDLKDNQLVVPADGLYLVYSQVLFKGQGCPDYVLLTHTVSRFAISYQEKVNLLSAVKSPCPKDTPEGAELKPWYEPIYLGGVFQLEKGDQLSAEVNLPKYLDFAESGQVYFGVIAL
The experiment is described as follows: X-ray crystallography, 3.15 Å. How it is done: The final purified ternary complex was concentrated to 18.5 mg/ml and immediately used in crystallization trials.
The ternary complex was crystallized by sitting drop vapor diffusion by mixing 0.5 μl of complex with 0.5 μl of 800 mM sodium potassium tartrate, 0.5% PEG5000 MME, 100 mM Tris pH 8.5 over 100 μl of the same crystallization solution. Crystals were harvested for data collection approximately 2 months after initial set up. They were briefly soaked in paraffin oil and frozen directly in liquid nitrogen for data collection on Aug. 17, 2012 at Argonne Photon Source, beamline 21-IDF.

T1 sequence (P01375 other isoform, or with tags, fused parts or gaps limits assumed): as the sequence (P01375 other isoform, or with tags, fused parts or gaps limits assumed) above

For “TNFR1(ECD)-6xLysine-Human single chain Fc, Alexa Fluor 488 conjugated (from UniProt P19438 30-211) (Fc fusion)”, the maximal inhibition of FRET signal in experiment [1] was 29%; in experiment [2], 36%.

B1: Human TNFR1 (V43-N184)(N54D, C182S) (receptor, UniProt P19438 43-184, looked up)
chain: VCPQGKYIHPQDNSICCTKCHKGTYLYNDCPGPGQDTDCRECESGSFTASENHLRHCLSCSKCRKEMGQVEISSCTVDRDTVCGCRKNQYRHYWSENLFQCFNCSLCLNGTVHLSCQEKQNTVCTCHAGFFLRENECVSSSN
notes: also called receptor
Consider B1, for which the binding result in experiment [3] and in experiment [4] was “binds” throughout.

B2: extracellular domain of human TNFR1 (VC 5602) (receptor)
chain: GSVCPQGKYIHPQDNSICCTKCHKGTYLYNDCPGPGQDTDCRECESGSFTASENHLRHCLSCSKCRKEMGQVEISSCTVDRDTVCGCRKNQYRHYWSENLFQCFNCSLCLNGTVHLSCQEKQNTVCTCHAGFFLRENECVSSSN
notes: Expressed in baculovirus infected insect cells
As for B2, the binding result in experiment [5] is recorded as “binds”.

These data come from patent publication US20180203016A1 (UCB, published 2018).
